The source of these data is article PMC3813916.

In this assay the target is HLA-DR1 on transfected murine fibroblasts (DAP.3-DR1) (human). The experiment in a line: radioligand binding.

“staphylococcal enterotoxin B (from UniProt P01552 28-266) (natural protein)”: the Kd came to 0.141 µM.
